Measurements reported in EP1417974A1.

Target: CD44v6 on antigen-positive FaDu cells (human) (UniProt P16070)
Assay: flow cytometry (FACS) on antigen-positive FaDu cells, FITC-labeled anti-human IgG detection, on ice

UniProt P16070, sequence (P16070 21-742): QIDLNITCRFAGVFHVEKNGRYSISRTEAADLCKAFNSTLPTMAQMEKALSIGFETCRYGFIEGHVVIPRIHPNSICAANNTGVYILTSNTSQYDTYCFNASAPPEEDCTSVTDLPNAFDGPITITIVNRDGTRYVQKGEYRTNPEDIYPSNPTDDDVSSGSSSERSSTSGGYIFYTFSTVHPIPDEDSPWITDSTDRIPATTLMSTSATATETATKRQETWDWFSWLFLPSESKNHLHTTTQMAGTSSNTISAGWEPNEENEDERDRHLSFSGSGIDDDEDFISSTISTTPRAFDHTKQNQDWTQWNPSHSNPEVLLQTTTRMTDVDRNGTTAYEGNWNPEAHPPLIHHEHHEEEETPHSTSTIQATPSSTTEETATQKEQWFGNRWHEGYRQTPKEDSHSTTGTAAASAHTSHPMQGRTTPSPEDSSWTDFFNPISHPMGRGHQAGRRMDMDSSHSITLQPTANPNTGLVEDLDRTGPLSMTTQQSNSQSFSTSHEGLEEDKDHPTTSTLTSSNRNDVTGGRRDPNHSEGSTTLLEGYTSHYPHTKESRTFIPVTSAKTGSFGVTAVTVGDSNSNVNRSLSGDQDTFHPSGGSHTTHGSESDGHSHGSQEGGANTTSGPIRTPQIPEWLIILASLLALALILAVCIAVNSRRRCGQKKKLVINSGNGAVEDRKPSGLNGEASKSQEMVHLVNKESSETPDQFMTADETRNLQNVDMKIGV

Kd [nM] | Molecule
1.8 | BIWI 1 (from UniProt P0DOX5 2-449)
1 | BIWA 4 (antibody, human IgG1, kappa, V domains shown) VH: EVQLVESGGGLVKPGGSLRLSCAASGFTFSSYDMSWVRQAPGKGLEWVSTISSGGSYTYYLDSIKGRFTISRDNAKNSLYLQMNSLRAEDTAVYYCARQGLDYWGRGTLVTVSS VL: EIVLTQSPATLSLSPGERATLSCSASSSINYIYWYQQKPGQAPRLLIYLTSNLASGVPARFSGSGSGTDFTLTISSLEPEDFAVYYCLQWSSNPLTFGGGTKVEIKR
